Assay results published in patent publication US20250263754.

T1: HRBP (1-81), amino acids 1 to 81 of the Nogo-B receptor (NgBR) family protein HRBP from Hevea brasiliensis
T1 chain: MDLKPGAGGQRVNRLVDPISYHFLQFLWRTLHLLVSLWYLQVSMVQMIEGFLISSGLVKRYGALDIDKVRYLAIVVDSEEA

B1: LDAP1-linker-HRT1 fusion protein (protein)
chain: MAEADAKLQNDTVQEDEVTTLKYLEFVQIAAVHAVVIVSSIYDFAKDNSGPLKPGVQTVEGTVKTVMSPVYEKIQDIPLELLKFADRKVDGFVQEVDRHVPVLVKQASSQAFSAAHRAPEVARSIKSELNRVGVVDTATEMTKAAYATLEPTAKDLYIRYEPVAEHYAVSAWRSLNRLPLFSEVAHIVVPTAAYWTDKYNKGVRYMEVKGFGVASYMPLVPTERIAKVFGEREEEIVLEMSPMTTSEVVNTGNSADGGGGSGGSGGSGGGSTQGGFLALLNVLTYCYELGVKYATIYAFSIDNFRRKPHEVQYVMDLMLEKIEGMIMEESIINAYDICVRFVGNLKLLSEPVKTAADKIMRATANNSKCVLLIAVCYTSTDEIVHAVEESSELNSNEVCNNQELEEANATGSGTVIQIENMESYSGIKLVDLEKNTYINPYPDVLIRTSGETRLSNYLLWQTTNCILYSPHALWPEIGLRHVVWAVINFQRHYSYLEKHKEYLK
B2: HRT1-linker-LDAP1 fusion protein (protein)
chain: GFLALLNVLTYCYELGVKYATIYAFSIDNFRRKPHEVQYVMDLMLEKIEGMIMEESIINAYDICVRFVGNLKLLSEPVKTAADKIMRATANNSKCVLLIAVCYTSTDEIVHAVEESSELNSNEVCNNQELEEANATGSGTVIQIENMESYSGIKLVDLEKNTYINPYPDVLIRTSGETRLSNYLLWQTTNCILYSPHALWPEIGLRHVVWAVINFQRHYSYLEKHKEYLKTGNSADGGGGSGGSGGSGGGSTQGMAEADAKLQNDTVQEDEVTTLKYLEFVQIAAVHAVVIVSSIYDFAKDNSGPLKPGVQTVEGTVKTVMSPVYEKIQDIPLELLKFADRKVDGFVQEVDRHVPVLVKQASSQAFSAAHRAPEVARSIKSELNRVGVVDTATEMTKAAYATLEPTAKDLYIRYEPVAEHYAVSAWRSLNRLPLFSEVAHIVVPTAAYWTDKYNKGVRYMEVKGFGVASYMPLVPTERIAKVFGEREEEIVLEMSPMTTSEVVN

Molecular target: T1, HRBP (1-81), amino acids 1 to 81 of the …

Row | Protein | Enzymatic activity (prenyl chain elongation, radioactivity of [4-14C]IPP incorporated, dpm) [dpm]
1 | B1 | 837
2 | B2 | 900
